Residue numbers refer to the chain shown, from its start. Names and notes keep the numbering of the source. Values joined by “and” are separate entries in the source; they are usually repeats but may differ in a detail not shown here. Equal values may be shown once.
B1: wild type glutamate oxaloacetate transaminase 1 (WT-GOT1) (enzyme, human, UniProt P17174-1 1-413, looked up)
chain: MAPPSVFAEVPQAQPVLVFKLTADFREDPDPRKVNLGVGAYRTDDCHPWVLPVVKKVEQKIANDNSLNHEYLPILGLAEFRSCASRLALGDDSPALKEKRVGGVQSLGGTGALRIGADFLARWYNGTNNKNTPVYVSSPTWENHNAVFSAAGFKDIRSYRYWDAEKRGLDLQGFLNDLENAPEFSIVVLHACAHNPTGIDPTPEQWKQIASVMKHRFLFPFFDSAYQGFASGNLERDAWAIRYFVSEGFEFFCAQSFSKNFGLYNERVGNLTVVGKEPESILQVLSQMEKIVRITWSNPPAQGARIVASTLSNPELFEEWTGNVKTMADRILTMRSELRARLEALKTPGTWNHITDQIGMFSFTGLNPKQVEYLVNEKHIYLLPSGRINVSGLTTKNLDYVATSIHEAVTKIQ
B2: GOT1 T110A mutant (enzyme, human, UniProt P17174-1 1-413, looked up)
chain: B1 chain with T110A
B3: GOT1 S256A mutant (enzyme, human, UniProt P17174-1 1-413, looked up)
chain: B1 chain with S256A

Biological target: the molecule itself
Assay: SEC

Row | Protein | stoichiometry N
1 | B1 | 2 and 4
2 | B2 | 2
3 | B3 | 2

Source: publication PMC6487875 (Biochemistry, 2018)
